Read-outs that look alike come from different tables or passages of the source.
Assays:
[1] = molecular target: T1, hemolytic activity of SaroL-1 on rabbit erythrocytes (Salpingoeca rosetta, UniProt F2UID9); experiment: Inhibition of hemolytic activity (IHA) of SaroL-1 by carbohydrates; assay type: cell-based; details: for inhibition: SaroL-1 217 nM, read-out: Mean % inhibition of hemolysis
T1 sequence (F2UID9 1-329): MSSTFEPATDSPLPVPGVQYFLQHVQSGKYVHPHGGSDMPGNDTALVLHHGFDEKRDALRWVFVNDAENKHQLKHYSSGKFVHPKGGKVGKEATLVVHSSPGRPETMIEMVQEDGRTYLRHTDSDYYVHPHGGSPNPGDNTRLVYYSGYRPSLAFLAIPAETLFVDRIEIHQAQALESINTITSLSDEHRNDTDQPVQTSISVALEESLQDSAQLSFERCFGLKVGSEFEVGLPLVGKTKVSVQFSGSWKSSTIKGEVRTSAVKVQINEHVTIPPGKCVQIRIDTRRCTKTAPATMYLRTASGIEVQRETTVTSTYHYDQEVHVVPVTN
Experimental: (§1) Both HA and IHA assays were performed in U-shaped 96-well microtiter plates. In both cases, a control negative experiment was performed with Buffer A added to erythrocyte solution (2% final concentration), and the resulting value was subtracted from all data.
IHA was performed in U-shaped 96-well microtiter plates. […] 4% rabbit erythrocytes were added to the mixture in a 1:1 ratio and incubated for 1–2 h at 37 °C. The samples were centrifuged, 2600 × g for 15 min at RT, and the absorbance of the supernatant was measured at 540 nm by a Tecan reader.

[2] = Confocal imaging of SaroL-1 binding to FSL-Gb3 GUVs; details: 200 nM fluorescent-labelled SaroL-1, FSL-Gb3 GUVs
Source text: (§2) GUVs were composed of 1,2-dioleoyl-sn-glycero-3-phosphocholine (DOPC), cholesterol (both AvantiPolar Lipids, United States), Atto 647 N 1,2-dioleoyl-sn-glycero-3-phosphoethanolamine (DOPE; Sigma-Aldrich), and one of the following glycolipids at a molar ratio of 64.7:30:0.3:5. The glycolipids are globotriaosylceramide (Gb3, Matreya), FSL-Gb3 (Function-Spacer-Lipid with globotriaosyl saccharide), and corresponding FSL-isoGb3 (Function-Spacer-Lipid with iso-globotriaosyl saccharide) synthetized as previously described[84],[85], FSL-A(tri) (Function-Spacer-Lipid with blood group A trisaccharide; Sigma-Aldrich), FSL-B(tri) (Function-Spacer-Lipid with blood group B trisaccharide; Sigma-Aldrich) or lactosylceramide (LC, Sigma-Aldrich).
(§3) GUVs were prepared by the electroformation method as earlier described. Briefly, lipids dissolved in chloroform of a total concentration of 0.5 mg/mL were spread on indium tin oxid-covered (ITO) glass slides and dried in a vacuum for at least 1 h or overnight. […]
(§4) Samples of GUVs and SaroL-1 were imaged using a confocal fluorescence microscope (Nikon Eclipse Ti-E inverted microscope equipped with Nikon A1R confocal laser scanning system, 60x oil immersion objective, NA = 1.49 and four laser lines: 405 nm, 488 nm, 561 nm, and 640 nm). […]

[3] = Confocal imaging of SaroL-1 binding to FSL-B GUVs; details: 200 nM SaroL-1, FSL-B GUVs
Source text: as §2, §3, §4

[4] = Confocal imaging of SaroL-1 binding to DOPC GUVs without glycolipids; details: 200 nM SaroL-1, DOPC GUVs without glycolipids (negative control)
Source text: as §2, §3, §4

rabbit erythrocytes = experiment: Hemolytic assay (HA); assay type: cell-based
Experimental: as §1
SaroL-1 with an initial concentration of 27 μM was diluted by serial 2-fold dilution in Buffer A. Rabbit erythrocytes were purchased from Atlantis France and used without further washing. The erythrocytes were diluted to a 4% solution in 150 mM NaCl. Protein solution and rabbit erythrocytes were mixed together in a 1:1 ratio and incubated for 1 h at 37 °C. After the samples were centrifuged, 2600 × g for 15 min at RT and the absorbance of the supernatant was measured at 540 nm by a Tecan reader.

H1299 cells = experiment: Cell detachment assay; assay type: cell-based, human
Experimental: The human lung epithelial cell line H1299 (American Type Culture Collection, CRL-5803) was cultured in a complete medium, consisting of Roswell Park Memorial Institute (RPMI) medium supplemented with 10% fetal calf serum (FCS) and 2 mM L-glutamine at 37 °C and 5% CO2. Cells were stimulated with different concentrations of SaroL-1 in a complete medium for indicated time points.
To determine the role of SaroL-1 in cell detachment, 3 × 10^5 cells per well were counted and allowed to adhere overnight in a 6-well plate. The next day, cells were incubated for 2, 4, or 8 h with two different concentrations of SaroL-1 (270 nM and 1.36 µM) diluted in a complete medium compared to a negative control. As a positive control, cells were incubated with trypsin-EDTA for 10 min at 37 °C, to induce 100% cell detachment. The number of cells in suspension at the indicated time points was quantified by analyzing the supernatant with the CytoSmart Corning cell counter. Cells were resuspended with Trypan Blue solution (Sigma-Aldrich) in a ratio 1:1 for the quantification of cellular death upon detachment.

O=[N+]([O-])c1ccc(O[C@H]2O[C@H](CO)[C@H](O)[C@H](O)[C@H]2O)cc1 [PNPG, p-nitrophenyl-α-D-galactopyranoside]
inhibition of hemolysis (in words) ([1]; 10 mM carbohydrate): complete inhibition | inhibition ([1]; sugar 0.003 mM): 8.15% | inhibition ([1]; sugar 0.006 mM): 10.7% | inhibition ([1]; sugar 0.0125 mM): 12.1% | inhibition ([1]; sugar 0.025 mM): 9.06% | inhibition ([1]; sugar 0.05 mM): 3.85% | inhibition ([1]; sugar 0.1 mM): 3.39% | inhibition ([1]; sugar 0.2 mM): 1.44% | inhibition ([1]; sugar 0.4 mM): 2.69% | inhibition ([1]; sugar 0.8 mM): 8.59% | inhibition ([1]; sugar 1.6 mM): 24.5% | inhibition ([1]; sugar 3.125 mM): 55.9% | inhibition ([1]; sugar 6.25 mM): 90.5% | inhibition ([1]; sugar 12.5 mM): 100% | inhibition ([1]; sugar 25 mM): 100% | inhibition ([1]; sugar 50 mM): 100%

B1: SaroL-1: Recombinant pore-forming lectin of Salpingoeca rosetta (UniProt F2UID9, 329 amino acids) with β-trefoil and aerolysin-like domains (protein)
chain: T1 sequence (F2UID9 1-329)
modifications: left off: His6, N-terminal, state not stated
notes: Recombinant pore-forming lectin of Salpingoeca rosetta (UniProt F2UID9, 329 amino acids) with β-trefoil and aerolysin-like domains
binding to GUVs [2]: Strong binding | binding to GUVs [3]: No binding | binding to GUVs [4]: No binding | Hemolysis MEAN % (rabbit erythrocytes; SaroL-1 7 nM): -2.217% | Hemolysis MEAN % (rabbit erythrocytes; SaroL-1 14 nM): -0.8961% | Hemolysis MEAN % (rabbit erythrocytes; SaroL-1 27 nM): -0.5487% | Hemolysis MEAN % (rabbit erythrocytes; SaroL-1 55 nM): 5.667% | Hemolysis MEAN % (rabbit erythrocytes; SaroL-1 110 nM): 24.3716% | Hemolysis MEAN % (rabbit erythrocytes; SaroL-1 217 nM): 59.5625% | Hemolysis MEAN % (rabbit erythrocytes; SaroL-1 423 nM): 85.1119% | Hemolysis MEAN % (rabbit erythrocytes; SaroL-1 843 nM): 95.7679% | Hemolysis MEAN % (rabbit erythrocytes; SaroL-1 1680 nM): 93.9729% | Hemolysis MEAN % (rabbit erythrocytes; SaroL-1 3400 nM): 95.1481% | Hemolysis MEAN % (rabbit erythrocytes; SaroL-1 6790 nM): 95.7781% | Hemolysis MEAN % (rabbit erythrocytes; SaroL-1 13590 nM): 100% | time point at which cell detachment is promoted (H1299 cells; 271 nM SaroL-1): 8 h | cell rounding and detachment (in words) (H1299 cells; compared to PBS-treated cells): dose-dependent rounding and detachment of cells | time point at which detachment of cells is visible (H1299 cells; highest concentration, 1.36 µM SaroL-1): 2 h

Reference: PMC9468336, “The choanoflagellate pore-forming lectin SaroL-1 punches holes in cancer cells by targeting the tumor-related glycosphingolipid Gb3” (Communications Biology, 2022)
